± gives the standard deviation of the averaged measurements.
B1: library; a variant is named by its letters at N, in order (parent)
chain: GCUGUCACCGAGAAACUGUGAAGUAUAUCUUAAACCUGGGCACUUAAAAGAUAUAUGGAGUUAGUAGUGCAACCUGCUCGGUCUGAUGAGUCCNNNNNNGGACGAAACAGC

What was measured:
[1] = variants of: B1; assay: normalized RNA/DNA level without ligand (relative to sTRSVctl = 100) (log10 (% of sTRSVctl)); HEK293T; ligand: cyclic di-GMP (c-di-GMP-II aptamer); higher = less ribozyme self-cleavage, higher mRNA level; details: reporter: mCherry (pCS4076), ligand present: no
How it was run: (§1)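 Only sequences with at least 100 DNA reads were analyzed, from HEK293T cells transfected with 4 µg per 6-well well of ribozyme switch library plasmids 72 h before RNA extraction with EDTA. Any ligand was added 1 h before transfection. RNA level was defined as RNA over DNA reads, normalized to a spiked-in non-cleaving sequence or to the top sequences, then scaled and log-transformed. The top set was 25 sequences, and the scaling was ×100 followed by log10.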

[2] = variants of: B1; assay: normalized RNA/DNA level with ligand (relative to sTRSVctl = 100) (log10 (% of sTRSVctl)); HEK293T; ligand: cyclic di-GMP (c-di-GMP-II aptamer); ligand concentration (+) RNA-Seq: 1 mM; higher = less ribozyme self-cleavage, higher mRNA level; details: reporter: mCherry (pCS4076), ligand present: yes
How it was run: as §1

Row | Variant | normalized RNA/DNA level without ligand (log10) [1] | normalized RNA/DNA level with ligand (log10) [2]
1 | UGCUGU | 1.748 ± 0.01 | 1.87 ± 0.1
2 | UGCUGG | 1.696 ± 0.014 | 1.87 ± 0.15
3 | UGCUGA | 1.6 ± 0.017 | 1.8 ± 0.085
4 | UGCUGC | 1.76 ± 0.025 | 1.92 ± 0.1
5 | GGCACU | 1.73 ± 0.12 | 1.885 ± 0.0081
6 | GGCACA | 1.69 ± 0.024 | 1.8 ± 0.12
7 | GGCACG | 1.76 ± 0.026 | 1.88 ± 0.039
8 | GGCACC | 1.75 ± 0.06 | 1.82 ± 0.085
9 | AGCCGG | 1.765 ± 0.013 | 1.865 ± 0.018
10 | AGCCGC | 1.75 ± 0.033 | 1.89 ± 0.13
11 | AGCCGU | 1.58 ± 0.048 | 1.77 ± 0.064
12 | AGCCGA | 1.748 ± 0.014 | 1.84 ± 0.14
13 | CGCCUG | 1.74 ± 0.036 | 1.82 ± 0.1
14 | CGCUAG | 1.747 ± 0.0046 | 1.87 ± 0.15
15 | CGCAGA | 1.45 ± 0.08 | 1.68 ± 0.078
16 | CGCAGC | 1.75 ± 0.027 | 1.87 ± 0.074
17 | CGCAGG | 1.61 ± 0.034 | 1.84 ± 0.03
18 | CGCAGU | 1.679 ± 0.005 | 1.82 ± 0.092
19 | AGCAGU | 1.689 ± 0.0032 | 1.84 ± 0.13
20 | AGCAGG | 1.822 ± 0.018 | 1.85 ± 0.1
21 | UGCACG | 1.801 ± 0.014 | 1.91 ± 0.14
22 | UGCACA | 1.76 ± 0.05 | 1.89 ± 0.12
23 | UGCACC | 1.74 ± 0.036 | 1.84 ± 0.14
24 | UGCACU | 1.74 ± 0.021 | 1.87 ± 0.094

Row | Variant | normalized RNA/DNA level without ligand (log10) [1] | normalized RNA/DNA level with ligand (log10) [2]
25 | GGCCUU | 1.791 ± 0.013 | 1.9 ± 0.059
26 | GGCCUG | 1.82 ± 0.026 | 1.87 ± 0.19
27 | GGCCUA | 1.61 ± 0.12 | 1.83 ± 0.13
28 | GGCCUC | 1.742 ± 0.015 | 1.83 ± 0.11
29 | GGCCGC | 1.71 ± 0.03 | 1.84 ± 0.097
30 | AGCACA | 1.58 ± 0.029 | 1.72 ± 0.12
31 | CGGAAC | 1.45 ± 0.077 | 1.62 ± 0.14
32 | CGGAAG | 1.745 ± 0.015 | 1.86 ± 0.1
33 | AGCGGC | 1.731 ± 0.0051 | 1.87 ± 0.074
34 | AGCGGG | 1.76 ± 0.043 | 1.9 ± 0.083
35 | AGCGGA | 1.52 ± 0.056 | 1.67 ± 0.086
36 | AGCCUG | 1.6624 ± 0.00017 | 1.81 ± 0.15
37 | AGCCUC | 1.77 ± 0.073 | 1.87 ± 0.13
38 | UGCUAA | 1.695 ± 0.0079 | 1.87 ± 0.09
39 | UGCUAG | 1.71 ± 0.031 | 1.9 ± 0.048
40 | UGCUAC | 1.7 ± 0.033 | 1.85 ± 0.069
41 | UGCUAU | 1.676 ± 0.0088 | 1.83 ± 0.13
42 | CGGAGA | 1.32 ± 0.11 | 1.55 ± 0.13
43 | CGGAGU | 1.63 ± 0.03 | 1.8 ± 0.1
44 | CGGAGG | 1.623 ± 0.014 | 1.82 ± 0.12
45 | AGGAGG | 1.6462 ± 0.0014 | 1.74 ± 0.1
46 | AGGAGC | 1.61 ± 0.065 | 1.7 ± 0.13
47 | AGGAGU | 1.52 ± 0.084 | 1.67 ± 0.058
48 | GGCGCG | 1.72 ± 0.034 | 1.83 ± 0.19

Row | Variant | normalized RNA/DNA level without ligand (log10) [1] | normalized RNA/DNA level with ligand (log10) [2]
49 | GGCGCC | 1.79 ± 0.041 | 1.84 ± 0.083
50 | GGCGCA | 1.86 ± 0.064 | 1.92 ± 0.023
51 | UGGAAA | 1.626 ± 0.0078 | 1.83 ± 0.059
52 | UGGAAG | 1.68 ± 0.026 | 1.81 ± 0.17
53 | CGCACG | 1.75 ± 0.038 | 1.85 ± 0.08
54 | CGCACC | 1.7 ± 0.031 | 1.83 ± 0.12
55 | CGCACU | 1.48 ± 0.12 | 1.71 ± 0.058
56 | CGCACA | 1.41 ± 0.091 | 1.59 ± 0.11
57 | AGCGAU | 1.71 ± 0.015 | 1.87 ± 0.1
58 | AGCGAC | 1.65 ± 0.052 | 1.81 ± 0.077
59 | AGCGAG | 1.57 ± 0.13 | 1.74 ± 0.042
60 | UGCGGA | 1.559 ± 0.0066 | 1.78 ± 0.12
61 | UGCGGC | 1.757 ± 0.0021 | 1.9 ± 0.12
62 | UGCGGU | 1.63 ± 0.035 | 1.8 ± 0.12
63 | UGCGGG | 1.81 ± 0.045 | 1.92 ± 0.067
64 | GGGAAU | 1.6 ± 0.095 | 1.79 ± 0.14
65 | GGGAAC | 1.68 ± 0.031 | 1.84 ± 0.057
66 | GGGAAG | 1.63 ± 0.069 | 1.7145 ± 0.00089
67 | GGGAAA | 1.46 ± 0.14 | 1.544 ± 0.007
68 | GGCCCU | 1.877 ± 0.012 | 1.94 ± 0.057
69 | GGCCCA | 1.8 ± 0.035 | 1.88 ± 0.082
70 | GGCCCC | 1.92 ± 0.045 | 2 ± 0.13
71 | CGCUUC | 1.62 ± 0.051 | 1.81 ± 0.081
72 | CGCUUG | 1.73 ± 0.043 | 1.88 ± 0.055

Row | Variant | normalized RNA/DNA level without ligand (log10) [1] | normalized RNA/DNA level with ligand (log10) [2]
73 | CGCCGG | 1.711 ± 0.011 | 1.85 ± 0.11
74 | CGCCGA | 1.6 ± 0.065 | 1.81 ± 0.072
75 | CGCCGU | 1.77 ± 0.049 | 1.87 ± 0.063
76 | CGCCGC | 1.8 ± 0.068 | 1.91 ± 0.11
77 | UGCUCC | 1.858 ± 0.016 | 1.93 ± 0.17
78 | UGCUCG | 1.77 ± 0.059 | 1.89 ± 0.16
79 | UGCUCU | 1.77 ± 0.018 | 1.92 ± 0.05
80 | UGCUCA | 1.762 ± 0.015 | 1.85 ± 0.09
81 | AGGAAC | 1.54 ± 0.12 | 1.68 ± 0.12
82 | AGCUUU | 1.712 ± 0.0062 | 1.85 ± 0.12
83 | AGCUUA | 1.57 ± 0.055 | 1.76 ± 0.11
84 | AGCUUC | 1.77 ± 0.026 | 1.9 ± 0.059
85 | AGCCCA | 1.84 ± 0.046 | 1.92 ± 0.11
86 | AGCCCC | 1.81 ± 0.031 | 1.92 ± 0.12
87 | AGCCCU | 1.77 ± 0.047 | 1.88 ± 0.12
88 | UGCUUG | 1.74 ± 0.06 | 1.88 ± 0.14
89 | UGCUUA | 1.75 ± 0.023 | 1.87 ± 0.095
90 | UGCUUC | 1.766 ± 0.017 | 1.89 ± 0.093
91 | AGCGCC | 1.7734 ± 0.0015 | 1.91 ± 0.082
92 | AGCGCA | 1.661 ± 0.005 | 1.78 ± 0.12
93 | AGCGCG | 1.708 ± 0.0043 | 1.83 ± 0.12
94 | AGCGCU | 1.7 ± 0.044 | 1.82 ± 0.17
95 | UGCCAG | 1.7634 ± 0.0015 | 1.87 ± 0.087
96 | UGCCAU | 1.694 ± 0.0071 | 1.81 ± 0.11

Row | Variant | normalized RNA/DNA level without ligand (log10) [1] | normalized RNA/DNA level with ligand (log10) [2]
97 | UGCCAC | 1.77 ± 0.056 | 1.88 ± 0.15
98 | UGCCAA | 1.689 ± 0.0043 | 1.83 ± 0.12
99 | GGCUGA | 1.54 ± 0.052 | 1.71 ± 0.14
100 | GGCUGU | 1.68 ± 0.05 | 1.79 ± 0.18
101 | GGCUGC | 1.7019 ± 0.0016 | 1.83 ± 0.11
102 | GGCUGG | 1.746 ± 0.013 | 1.82 ± 0.092
103 | UGCGAA | 1.69 ± 0.054 | 1.784 ± 0.013
104 | UGCGAU | 1.605 ± 0.0035 | 1.8 ± 0.091
105 | UGCGAC | 1.685 ± 0.016 | 1.82 ± 0.08
106 | GGCGUG | 1.75 ± 0.017 | 1.86 ± 0.15
107 | GGCGUA | 1.6 ± 0.017 | 1.74 ± 0.13
108 | GGCGUC | 1.68 ± 0.077 | 1.79 ± 0.17
109 | GGCGGC | 1.71 ± 0.021 | 1.89 ± 0.13
110 | UGCGCC | 1.79 ± 0.046 | 1.92 ± 0.094
111 | UGCGCU | 1.72 ± 0.032 | 1.89 ± 0.11
112 | UGCGCA | 1.711 ± 0.014 | 1.86 ± 0.061
113 | UGCGCG | 1.821 ± 0.0063 | 1.92 ± 0.085
114 | AGCCAC | 1.7 ± 0.041 | 1.86 ± 0.087
115 | AGCCAG | 1.68 ± 0.077 | 1.79 ± 0.058
116 | AGCCAU | 1.718 ± 0.0054 | 1.8 ± 0.11

Reference: the supplement of paper PMC6757056
